T1: EsCas13d, nuclease-dead (Eubacterium siraeum, UniProt B0MS50, R295A;H300A;R849A;H854A)
T1 sequence: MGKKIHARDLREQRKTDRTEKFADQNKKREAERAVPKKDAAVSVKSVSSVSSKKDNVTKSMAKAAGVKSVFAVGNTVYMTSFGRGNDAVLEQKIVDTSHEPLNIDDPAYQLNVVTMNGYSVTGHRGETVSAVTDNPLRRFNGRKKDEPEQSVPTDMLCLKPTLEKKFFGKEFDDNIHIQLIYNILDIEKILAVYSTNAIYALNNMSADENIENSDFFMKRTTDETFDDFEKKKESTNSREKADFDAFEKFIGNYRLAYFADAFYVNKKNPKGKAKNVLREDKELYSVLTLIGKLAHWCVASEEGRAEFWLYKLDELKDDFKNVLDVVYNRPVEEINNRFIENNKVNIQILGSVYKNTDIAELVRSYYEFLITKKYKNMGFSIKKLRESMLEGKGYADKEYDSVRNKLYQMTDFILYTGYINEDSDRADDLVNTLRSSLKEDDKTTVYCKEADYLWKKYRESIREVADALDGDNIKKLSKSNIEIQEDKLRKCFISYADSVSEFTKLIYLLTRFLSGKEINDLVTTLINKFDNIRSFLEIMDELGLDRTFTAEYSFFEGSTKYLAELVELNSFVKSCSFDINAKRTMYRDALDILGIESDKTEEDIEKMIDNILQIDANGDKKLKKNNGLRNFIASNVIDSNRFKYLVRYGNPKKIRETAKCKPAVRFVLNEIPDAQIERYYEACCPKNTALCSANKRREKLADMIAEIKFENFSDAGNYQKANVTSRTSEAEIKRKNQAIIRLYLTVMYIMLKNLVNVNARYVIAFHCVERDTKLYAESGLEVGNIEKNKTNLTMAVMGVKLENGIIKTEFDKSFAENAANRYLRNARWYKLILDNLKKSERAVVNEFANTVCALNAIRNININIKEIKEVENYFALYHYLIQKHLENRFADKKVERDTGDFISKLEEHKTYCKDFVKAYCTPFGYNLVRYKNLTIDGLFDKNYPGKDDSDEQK


target: T1, EsCas13d, nuclease-dead; assay: crRNA (strand 1, pre-loaded); Mg2+; 40 mM Tris-HCl pH 7.5, 150 mM NaCl, 6 mM MgCl2, 1 mM DTT, 0.1% Tween-20, 0.2 mg/ml BSA; 25 C; 10 min per concentration, then washed; settings: tags: His6-TwinStrep-SUMO cleaved; N-terminal SNAP kept (SNAP-Surface 488); label: 3' end held by stalled T7 RNA polymerase

Row | Binder | Kd
1 | target 1 A1C,U3A (mixed) RNA 1: CACCCGUGCAAAAAUGCAGGGGUCUAAAACUGAGCGGAUAACCUCUCUAUGG RNA 2: GGGAAUGGAUCCACAUCUACGAAUUCGUACCAUAGAGAGGUUAUCCGCACCCCGAGAUCGGAAGAGCACACGU | 37 ± 7 nM
2 | target 1 U8C,A9U (mixed) RNA 1: CACCCGUGCAAAAAUGCAGGGGUCUAAAACUGAGCGGAUAACCUCUCUAUGG RNA 2: GGGAAUGGAUCCACAUCUACGAAUUCGUACCAUAGAGAGGUUUCCCGCUCACCGAGAUCGGAAGAGCACACGU | 20.5 ± 0.8 nM
3 | target 1 del2,del17 (mixed) RNA 1: CACCCGUGCAAAAAUGCAGGGGUCUAAAACUGAGCGGAUAACCUCUCUAUGG RNA 2: GGGAAUGGAUCCACAUCUACGAAUUCGUACCAUAAGAGGUUAUCCGCUACCGAGAUCGGAAGAGCACACGU | ~70 nM
4 | target 1 U3A (mixed) RNA 1: CACCCGUGCAAAAAUGCAGGGGUCUAAAACUGAGCGGAUAACCUCUCUAUGG RNA 2: GGGAAUGGAUCCACAUCUACGAAUUCGUACCAUAGAGAGGUUAUCCGCACACCGAGAUCGGAAGAGCACACGU | 15 ± 1.3 nM
5 | target 1 insG 3' of 16,insU 3' of 1 (mixed) RNA 1: CACCCGUGCAAAAAUGCAGGGGUCUAAAACUGAGCGGAUAACCUCUCUAUGG RNA 2: GGGAAUGGAUCCACAUCUACGAAUUCGUACCAUAGAGGAGGUUAUCCGCUCAUCCGAGAUCGGAAGAGCACACGU | 16 ± 1.3 nM
6 | target 1 del2,del4 (mixed) RNA 1: CACCCGUGCAAAAAUGCAGGGGUCUAAAACUGAGCGGAUAACCUCUCUAUGG RNA 2: GGGAAUGGAUCCACAUCUACGAAUUCGUACCAUAGAGAGGUUAUCCGUACCGAGAUCGGAAGAGCACACGU | 42 ± 10 nM
7 | target 1 del1,del4 (mixed) RNA 1: CACCCGUGCAAAAAUGCAGGGGUCUAAAACUGAGCGGAUAACCUCUCUAUGG RNA 2: GGGAAUGGAUCCACAUCUACGAAUUCGUACCAUAGAGAGGUUAUCCGUCCCGAGAUCGGAAGAGCACACGU | 42 ± 8 nM
8 | target 1 U3G,G12A (mixed) RNA 1: CACCCGUGCAAAAAUGCAGGGGUCUAAAACUGAGCGGAUAACCUCUCUAUGG RNA 2: GGGAAUGGAUCCACAUCUACGAAUUCGUACCAUAGAGAGAUUAUCCGCGCACCGAGAUCGGAAGAGCACACGU | 4 ± 0.5 nM
9 | target 1 A1U,U3C (mixed) RNA 1: CACCCGUGCAAAAAUGCAGGGGUCUAAAACUGAGCGGAUAACCUCUCUAUGG RNA 2: GGGAAUGGAUCCACAUCUACGAAUUCGUACCAUAGAGAGGUUAUCCGCCCUCCGAGAUCGGAAGAGCACACGU | 20.9 ± 1.9 nM
10 | target 1 U11C (mixed) RNA 1: CACCCGUGCAAAAAUGCAGGGGUCUAAAACUGAGCGGAUAACCUCUCUAUGG RNA 2: GGGAAUGGAUCCACAUCUACGAAUUCGUACCAUAGAGAGGCUAUCCGCUCACCGAGAUCGGAAGAGCACACGU | 8.9 ± 0.6 nM
11 | target 1 A1C,U11C (mixed) RNA 1: CACCCGUGCAAAAAUGCAGGGGUCUAAAACUGAGCGGAUAACCUCUCUAUGG RNA 2: GGGAAUGGAUCCACAUCUACGAAUUCGUACCAUAGAGAGGCUAUCCGCUCCCCGAGAUCGGAAGAGCACACGU | 22 ± 4 nM
12 | target 1 C4U,A9C (mixed) RNA 1: CACCCGUGCAAAAAUGCAGGGGUCUAAAACUGAGCGGAUAACCUCUCUAUGG RNA 2: GGGAAUGGAUCCACAUCUACGAAUUCGUACCAUAGAGAGGUUCUCCGUUCACCGAGAUCGGAAGAGCACACGU | 26 ± 4 nM
13 | target 1 C4G,A18G (mixed) RNA 1: CACCCGUGCAAAAAUGCAGGGGUCUAAAACUGAGCGGAUAACCUCUCUAUGG RNA 2: GGGAAUGGAUCCACAUCUACGAAUUCGUACCAUGGAGAGGUUAUCCGGUCACCGAGAUCGGAAGAGCACACGU | 36 ± 12 nM
14 | target 1 insA 3' of 11,insU 3' of 6 (mixed) RNA 1: CACCCGUGCAAAAAUGCAGGGGUCUAAAACUGAGCGGAUAACCUCUCUAUGG RNA 2: GGGAAUGGAUCCACAUCUACGAAUUCGUACCAUAGAGAGGUAUAUCCUGCUCACCGAGAUCGGAAGAGCACACGU | 18.2 ± 0.7 nM
15 | target 1 C22U (mixed) RNA 1: CACCCGUGCAAAAAUGCAGGGGUCUAAAACUGAGCGGAUAACCUCUCUAUGG RNA 2: GGGAAUGGAUCCACAUCUACGAAUUCGUAUCAUAGAGAGGUUAUCCGCUCACCGAGAUCGGAAGAGCACACGU | 16.6 ± 1.1 nM
16 | target 1 U8G,G13A (mixed) RNA 1: CACCCGUGCAAAAAUGCAGGGGUCUAAAACUGAGCGGAUAACCUCUCUAUGG RNA 2: GGGAAUGGAUCCACAUCUACGAAUUCGUACCAUAGAGAAGUUAGCCGCUCACCGAGAUCGGAAGAGCACACGU | 12.6 ± 0.9 nM
17 | target 1 insG 3' of 22,insG 3' of 9 (mixed) RNA 1: CACCCGUGCAAAAAUGCAGGGGUCUAAAACUGAGCGGAUAACCUCUCUAUGG RNA 2: GGGAAUGGAUCCACAUCUACGAAUUCGUACGCAUAGAGAGGUUAGUCCGCUCACCGAGAUCGGAAGAGCACACGU | 28.2 ± 1.8 nM
18 | target 1 C7A,G13A (mixed) RNA 1: CACCCGUGCAAAAAUGCAGGGGUCUAAAACUGAGCGGAUAACCUCUCUAUGG RNA 2: GGGAAUGGAUCCACAUCUACGAAUUCGUACCAUAGAGAAGUUAUACGCUCACCGAGAUCGGAAGAGCACACGU | 10.8 ± 0.7 nM
19 | target 1 C2G,C6A (mixed) RNA 1: CACCCGUGCAAAAAUGCAGGGGUCUAAAACUGAGCGGAUAACCUCUCUAUGG RNA 2: GGGAAUGGAUCCACAUCUACGAAUUCGUACCAUAGAGAGGUUAUCAGCUGACCGAGAUCGGAAGAGCACACGU | 4.49 ± 0.17 nM
20 | target 1 insC 3' of 19,insU 3' of 2 (mixed) RNA 1: CACCCGUGCAAAAAUGCAGGGGUCUAAAACUGAGCGGAUAACCUCUCUAUGG RNA 2: GGGAAUGGAUCCACAUCUACGAAUUCGUACCAUCAGAGAGGUUAUCCGCUCUACCGAGAUCGGAAGAGCACACGU | 32.7 ± 2.9 nM
21 | target 1 insG 3' of 16,insA 3' of 3 (mixed) RNA 1: CACCCGUGCAAAAAUGCAGGGGUCUAAAACUGAGCGGAUAACCUCUCUAUGG RNA 2: GGGAAUGGAUCCACAUCUACGAAUUCGUACCAUAGAGGAGGUUAUCCGCUACACCGAGAUCGGAAGAGCACACGU | 17.7 ± 1.2 nM
22 | target 1 A1U,C22U (mixed) RNA 1: CACCCGUGCAAAAAUGCAGGGGUCUAAAACUGAGCGGAUAACCUCUCUAUGG RNA 2: GGGAAUGGAUCCACAUCUACGAAUUCGUAUCAUAGAGAGGUUAUCCGCUCUCCGAGAUCGGAAGAGCACACGU | 17 ± 2.6 nM
23 | target 1 A1U,U11C (mixed) RNA 1: CACCCGUGCAAAAAUGCAGGGGUCUAAAACUGAGCGGAUAACCUCUCUAUGG RNA 2: GGGAAUGGAUCCACAUCUACGAAUUCGUACCAUAGAGAGGCUAUCCGCUCUCCGAGAUCGGAAGAGCACACGU | 9.3 ± 1 nM
24 | target 1 C4U,U10G (mixed) RNA 1: CACCCGUGCAAAAAUGCAGGGGUCUAAAACUGAGCGGAUAACCUCUCUAUGG RNA 2: GGGAAUGGAUCCACAUCUACGAAUUCGUACCAUAGAGAGGUGAUCCGUUCACCGAGAUCGGAAGAGCACACGU | 18.5 ± 1.9 nM
25 | target 1 A1C,G13C (mixed) RNA 1: CACCCGUGCAAAAAUGCAGGGGUCUAAAACUGAGCGGAUAACCUCUCUAUGG RNA 2: GGGAAUGGAUCCACAUCUACGAAUUCGUACCAUAGAGACGUUAUCCGCUCCCCGAGAUCGGAAGAGCACACGU | 47 ± 11 nM
26 | target 1 U11A,G17A (mixed) RNA 1: CACCCGUGCAAAAAUGCAGGGGUCUAAAACUGAGCGGAUAACCUCUCUAUGG RNA 2: GGGAAUGGAUCCACAUCUACGAAUUCGUACCAUAAAGAGGAUAUCCGCUCACCGAGAUCGGAAGAGCACACGU | 91 ± 13 nM
27 | target 1 insG 3' of 21,insG 3' of 9 (mixed) RNA 1: CACCCGUGCAAAAAUGCAGGGGUCUAAAACUGAGCGGAUAACCUCUCUAUGG RNA 2: GGGAAUGGAUCCACAUCUACGAAUUCGUACCGAUAGAGAGGUUAGUCCGCUCACCGAGAUCGGAAGAGCACACGU | 70 ± 17 nM
28 | target 1 U19C,A20C (mixed) RNA 1: CACCCGUGCAAAAAUGCAGGGGUCUAAAACUGAGCGGAUAACCUCUCUAUGG RNA 2: GGGAAUGGAUCCACAUCUACGAAUUCGUACCCCAGAGAGGUUAUCCGCUCACCGAGAUCGGAAGAGCACACGU | 94 ± 29 nM
